Results: patent US20260092093A1 (TJ BIOPHARMA SHANGHAI, published 2026)

T1: recombinant hIL-18Rα extracellular domain (human, UniProt Q13478 22-329, biotin label (selection) or fluorescent probe (single-clone FACS), sites not given)
T1 construct: extracellular domain; also called hIL-18Rα ECD; hIL-18Rα-ECD
T1 sequence (looked up): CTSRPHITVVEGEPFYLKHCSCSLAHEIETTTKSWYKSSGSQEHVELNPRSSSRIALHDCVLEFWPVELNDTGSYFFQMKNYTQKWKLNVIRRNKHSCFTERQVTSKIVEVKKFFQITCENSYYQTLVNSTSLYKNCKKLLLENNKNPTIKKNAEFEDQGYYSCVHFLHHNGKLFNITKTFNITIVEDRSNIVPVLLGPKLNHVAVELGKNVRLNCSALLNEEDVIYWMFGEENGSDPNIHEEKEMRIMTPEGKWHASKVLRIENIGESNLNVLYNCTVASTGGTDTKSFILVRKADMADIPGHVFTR


Target: T1, recombinant hIL-18Rα extracellular …
Assay: single-clone FACS, yeast display, 10 nM labelled hIL-18Rα ECD
Method: Following the screens described in Example 2, single clone FACS analysis was performed to verify the binding of selected yeast cell surface-expressed IL-18 variant polypeptides from Round 4 and Round 5 to 10 nM hIL-18Rα-ECD. Briefly, each yeast clone at the same density was incubated with 10 nM IL-18Rα-ECD labeled by fluorescent probe, respectively, followed by washing step. Then the ratio of fluorescent positive IL-18Rα ECD binding yeasts in the population of each clone were analyzed.

Row | Binder | % of fluorescence positive cells [%]
1 | SEQ ID NO 61 (ligand) YFPKLKSKLSVIRNLNDQVLFIDQGNRPLFEDMTDSDCRDNAPRTIFIISMYKFSTERGMAVTISVKCEKISTLSCENKIISFKEMNPPDPIKDTKSDIIFFQRSVPGHDNKMQFESSSYEGYFLACEKERDLFKLILKKEDELGDRSIMFTVQNED | 76.1
2 | SEQ ID NO 63 (ligand) YFPKLQSKLSVIRNLNDQVLFIDQGNRPLFEDMTDSDCRDNAPRTIFIISMYKLSTPRGMAVTISVKCEKISTLSCENKIISFKEMNPPDAIKDTKSDIIFFQRSVPGHDNKMQFESSSYEGYFLACEKERDLFKLILKKEDELGDRSIMFTVQNED | 72.6
3 | SEQ ID NO 64 (ligand) YFPKLNSKLSVIRNLNDQVLFIDQGNRPLFEDMTDSDCRDNAPRTIFIISMYKVPTARGMAVTISVKCEKISTLSCENKIISFKEMNPPDAIKDTKSDIIFFQRSVPGHDNKMQFESSSYEGYFLACEKERDLFKLILKKEDELGDRSIMFTVQNED | 70.8
4 | SEQ ID NO 67 (ligand) YFTKLRSKLSVIRNLNDQVLFIDQGNRPLFEDMTDSDCRDNAPRTIFIISMYKLSHLRGIAVTISVKCEKISTLSCENKIISFKEMNPPDAIKDTKSDIIFFQSSVPGHDNKMQFESSSYEGYFLACEKERDLFKLILKKEDELGDRSIMFTVQNED | 66.4
5 | SEQ ID NO 68 (ligand) YFPKLKSKLSVIRNLNDQVLFIDQGNRPLFEDMTDSDCRDNAPRTIFIISMYKWSPWRGMAVTISVKCEKISTLSCENKIISFKEMNPPDNIKDTKSDIIFFQTSVPGHDNKMQFESSSYEGYFLACEKERDLFKLILKKEDELGDRSIMFTVQNED | 60.9
6 | SEQ ID NO 69 (ligand) YFPKLVSKLSVIRNLNDQVLFIDQGNRPLFEDMTDSDCRDNAPRTIFIISMYKWSAIRGMAVTISVKCEKISTLSCENKIISFKEMNPPDVIKDTKSDIIFFQTSVPGHDNKMQFESSSYEGYFLACEKERDLFKLILKKEDELGDRSIMFTVQNED | 60.9
7 | SEQ ID NO 70 (ligand) YFPKLRSKLSVIRNLNDQVLFIDQGNRPLFEDMTDSDCRDNAPRTIFIISMYKWSGGRGMAVTISVKCEKISTLSCENKIISFKEMNPPDAIKDTKSDIIFFQLSVPGHDNKMQFESSSYEGYFLACEKERDLFKLILKKEDELGDRSIMFTVQNED | 51.3
8 | SEQ ID NO 71 (ligand) YFPKLYSKLSVIRNLNDQVLFIDQGNRPLFEDMTDSDCRDNAPRTIFIISMYKHSTNRGMAVTISVKCEKISTLSCENKIISFKEMNPPDGIKDTKSDIIFFQRSVPGHDNKMQFESSSYEGYFLACEKERDLFKLILKKEDELGDRSIMFTVQNED | 45.1
9 | SEQ ID NO 75 (ligand) YFPKLGSKLSVIRNLNDQVLFIDQGNRPLFEDMTDSDCRDNAPRTIFIISMYKHSSRRGMAVTISVKCEKISTLSCENKIISFKEMNPPDVIKDTKSDIIFFQNSVPGHDNKMQFESSSYEGYFLACEKERDLFKLILKKEDELGDRSIMFTVQNED | 30
10 | SEQ ID NO 76 (ligand) YFPKLKSKLSVIRNLNDQVLFIDQGNRPLFEDMTDSDCRDNAPRTIFIISMYKWSWARGMAVTISVKCEKISTLSCENKIISFKEMNPPDLIKDTKSDIIFFQYSVPGHDNKMQFESSSYEGYFLACEKERDLFKLILKKEDELGDRSIMFTVQNED | 29.7
11 | SEQ ID NO 77 (ligand) YFPKLRSKLSVIRNLNDQVLFIDQGNRPLFEDMTDSDCRDNAPRTIFIISMYKHSYTRGMAVTISVKCEKISTLSCENKIISFKEMNPPDIIKDTKSDIIFFQYSVPGHDNKMQFESSSYEGYFLACEKERDLFKLILKKEDELGDRSIMFTVQNED | 28.4
12 | SEQ ID NO 78 (ligand) YFKKLPSKLSVIHNLNDQVLFIDQGNRPLFEDMTDSDCRDNAPRTIFIISMYKLSSERGMAVTISVKCEKISTLSCENKIISFKEMNPPDNIKDTKSDIIFFQRSVPGHDNKMQFESSSYEGYFLACEKERDLFKLILKKEDELGDRSIMFTVQNED | 27.8
13 | SEQ ID NO 79 (ligand) YFPKLGSKLSVIRNLNDQVLFIDQGNRPLFEDMTDSDCRDNAPRTIFIISMYKWSQPRGMAVTISVKCEKISTLSCENKIISFKEMNPPDVIKDTKSDIIFFQYSVPGHDNKMQFESSSYEGYFLACEKERDLFKLILKKEDELGDRSIMFTVQNED | 21.5
14 | SEQ ID NO 80 (ligand) YFPKLRSKLSVIRNLNDQVLFIDQGNRPLFEDMTDSDCRDNAPRTIFIISMYKWSYPRGMAVTISVKCEKISTLSCENKIISFKEMNPPDGIKDTKSDIIFFQFSVPGHDNKMQFESSSYEGYFLACEKERDLFKLILKKEDELGDRSIMFTVQNED | 18.6
15 | SEQ ID NO 82 (ligand) YFPKLRSKLSVIRNLNDQVLFIDQGNRPLFEDMTDSDCRDNAPRTIFIISMYKLSTIRGMAVTISVKCEKISTLSCENKIISFKEMNPPDYIKDTKSDIIFFQRSVPGHDNKMQFESSSYEGYFLACEKERDLFKLILKKEDELGDRSIMFTVQNED | 14.5
16 | SEQ ID NO 83 (ligand) YFWKLWSKLSVIRNLNDQVLFIDQGNRPLFEDMTDSDCRDNAPRTIFIISMYKPSNFRGMAVTISVKCEKISTLSCENKIISFKEMNPPDVIKDTKSDIIFFQGSVPGHDNKMQFESSSYEGYFLACEKERDLFKLILKKEDELGDRSIMFTVQNED | 13.5
17 | SEQ ID NO 84 (ligand) YFPKLKSKLSVIRNLNDQVLFIDQGNRPLFEDMTDSDCRDNAPRTIFIISMYKMSSARGMAVTISVKCEKISTLSCENKIISFKEMNPPDGIKDTKSDIIFFQSSVPGHDNKMQFESSSYEGYFLACEKERDLFKLILKKEDELGDRSIMFTVQNED | 11.5
18 | SEQ ID NO 85 (ligand) YFPKLKSKLSVIRNLNDQVLFIDQGNRPLFEDMTDSDCRDNAPRTIFIISMYKWSGGRGMAVTISVKCEKISTLSCENKIISFKEMNPPDSIKDTKSDIIFFQFSVPGHDNKMQFESSSYEGYFLACEKERDLFKLILKKEDELGDRSIMFTVQNED | 10.8
19 | SEQ ID NO 86 (ligand) YFPKLNSKLSVIRNLNDQVLFIDQGNRPLFEDMTDSDCRDNAPRTIFIISMYKLSTVRGMAVTISVKCEKISTLSCENKIISFKEMNPPDPIKDTKSDIIFFQHSVPGHDNKMQFESSSYEGYFLACEKERDLFKLILKKEDELGDRSIMFTVQNED | 9.28
20 | SEQ ID NO 87 (ligand) YFPKLGSKLSVIRNLNDQVLFIDQGNRPLFEDMTDSDCRDNAPRTIFIISMYKGSHFRGMAVTISVKCEKISTLSCENKIISFKEMNPPDGIKDTKSDIIFFQSSVPGHDNKMQFESSSYEGYFLACEKERDLFKLILKKEDELGDRSIMFTVQNED | 6.12
21 | SEQ ID NO 88 (ligand) YFPKLSSKLSVIRNLNDQVLFIDQGNRPLFEDMTDSDCRDNAPRTIFIISMYKHSSRRGMAVTISVKCEKISTLSCENKIISFKEMNPPDVIKDTKSDIIFFQASVPGHDNKMQFESSSYEGYFLACEKERDLFKLILKKEDELGDRSIMFTVQNED | 5.45
22 | SEQ ID NO 89 (ligand) YFPKLASKLSVIRNLNDQVLFIDQGNRPLFEDMTDSDCRDNAPRTIFIISMYKHSSKRGMAVTISVKCEKISTLSCENKIISFKEMNPPDVIKDTKSDIIFFQVSVPGHDNKMQFESSSYEGYFLACEKERDLFKLILKKEDELGDRSIMFTVQNED | 5.27
23 | SEQ ID NO 90 (ligand) YFPKLRSKLSVIRNLNDQVLFIDQGNRPLFEDMTDSDCRDNAPRTIFIISMYKSSLKRGMAVTISVKCEKISTLSCENKIISFKEMNPPDTIKDTKSDIIFFQSSVPGHDNKMQFESSSYEGYFLACEKERDLFKLILKKEDELGDRSIMFTVQNED | 5.15
24 | SEQ ID NO 92 (ligand) YFWKLSSKLSVIRNLNDQVLFIDQGNRPLFEDMTDSDCRDNAPRTIFIISMYKQSLRRGMAVTISVKCEKISTLSCENKIISFKEMNPPDRIKDTKSDIIFFQASVPGHDNKMQFESSSYEGYFLACEKERDLFKLILKKEDELGDRSIMFTVQNED | 4.48
25 | SEQ ID NO 93 (ligand) YFGKLPSKLSVIRNLNDQVLFIDQGNRPLFEDMTDSDCRDNAPRTIFIISMYKLSNRRGMAVTISVKCEKISTLSCENKIISFKEMNPPDGIKDTKSDIIFFQRSVPGHDNKMQFESSSYEGYFLACEKERDLFKLILKKEDELGDRSIMFTVQNED | 4.48
